Measurements taken from article PMC13397619.

B1: NLV3 TCR beta chain (CDR3β only) (parent)
chain: ASSPTGGSPSPLH

Variants of: B1
Assay: T-Switch: Jurkat TCRβ−/− cells expressing a CDR3 saturation-mutagenesis library, stained with two peptide-HLA-A*02:01 tetramers (original and novel peptide) plus anti-CD3, FACS-sorted into four gates, gDNA sequenced
Conditions: tetramers 1 µg/mL, 30 min on ice, SP, DP and SW gates expanded about 10 days between rounds ('two to three rounds of selection' in the Methods), unresolved parent, parent is a CDR3 fragment, scale: fold enrichment, numbering: sequential-on-construct, sequence starts at 1
[1] = with both tetramers (double-negative gate, binds neither): HLA-A*02:01 with … and with …, gate DN: OPPOSITE: higher = more of the variant in the gate that binds neither peptide = LESS binding (or no expression; inferred). Fold enrichment of the CDR3 variant in one FACS gate of a two-tetram
[2] = with both tetramers (double-positive gate): HLA-A*02:01 with … and with …, gate DP: higher = more of the variant in the gate that binds both peptides. Fold enrichment of the CDR3 variant in one FACS gate of a two-tetramer stain. SP/DP/SW gates were expanded and re-sorted bef

Variant | enrichment [1] | enrichment [2]
[…] (CDR3 as printed); H13C derived by comparing it with the table's wild-type CDR3 ASSPTGGSPSPLH | 0.646 | 0
[…] (CDR3 as printed); H13D derived by comparing it with the table's wild-type CDR3 ASSPTGGSPSPLH | 0.745 | 0
[…] (CDR3 as printed); H13E derived by comparing it with the table's wild-type CDR3 ASSPTGGSPSPLH | 0.868 | 0
[…] (CDR3 as printed); H13F derived by comparing it with the table's wild-type CDR3 ASSPTGGSPSPLH | 0.541 | 0
[…] (CDR3 as printed); H13G derived by comparing it with the table's wild-type CDR3 ASSPTGGSPSPLH | 0.702 | 0
[…] (CDR3 as printed); H13I derived by comparing it with the table's wild-type CDR3 ASSPTGGSPSPLH | 0.602 | 0
[…] (CDR3 as printed); H13K derived by comparing it with the table's wild-type CDR3 ASSPTGGSPSPLH | 0.708 | 0
[…] (CDR3 as printed); H13L derived by comparing it with the table's wild-type CDR3 ASSPTGGSPSPLH | 0.846 | 0
[…] (CDR3 as printed); H13M derived by comparing it with the table's wild-type CDR3 ASSPTGGSPSPLH | 0.598 | 0
[…] (CDR3 as printed); H13N derived by comparing it with the table's wild-type CDR3 ASSPTGGSPSPLH | 0.56 | 0
[…] (CDR3 as printed); H13P derived by comparing it with the table's wild-type CDR3 ASSPTGGSPSPLH | 1 | 0
[…] (CDR3 as printed); H13Q derived by comparing it with the table's wild-type CDR3 ASSPTGGSPSPLH | 0.592 | 0
[…] (CDR3 as printed); H13R derived by comparing it with the table's wild-type CDR3 ASSPTGGSPSPLH | 0.602 | 0
[…] (CDR3 as printed); H13S derived by comparing it with the table's wild-type CDR3 ASSPTGGSPSPLH | 0.978 | 0
[…] (CDR3 as printed); H13T derived by comparing it with the table's wild-type CDR3 ASSPTGGSPSPLH | 0.524 | 0
[…] (CDR3 as printed); H13V derived by comparing it with the table's wild-type CDR3 ASSPTGGSPSPLH | 0.58 | 0
[…] (CDR3 as printed); H13W derived by comparing it with the table's wild-type CDR3 ASSPTGGSPSPLH | 0.345 | 0
[…] (CDR3 as printed); H13Y derived by comparing it with the table's wild-type CDR3 ASSPTGGSPSPLH | 0.87 | 0
[…] (CDR3 as printed); L12A derived by comparing it with the table's wild-type CDR3 ASSPTGGSPSPLH | 1.68 | 0
[…] (CDR3 as printed); L12C derived by comparing it with the table's wild-type CDR3 ASSPTGGSPSPLH | 0.764 | 0

Variant | enrichment [1] | enrichment [2]
[…] (CDR3 as printed); L12D derived by comparing it with the table's wild-type CDR3 ASSPTGGSPSPLH | 0.327 | 0
[…] (CDR3 as printed); L12E derived by comparing it with the table's wild-type CDR3 ASSPTGGSPSPLH | 1.1 | 0
[…] (CDR3 as printed); L12F derived by comparing it with the table's wild-type CDR3 ASSPTGGSPSPLH | 1.49 | 0
[…] (CDR3 as printed); L12G derived by comparing it with the table's wild-type CDR3 ASSPTGGSPSPLH | 0.618 | 0
[…] (CDR3 as printed); L12H derived by comparing it with the table's wild-type CDR3 ASSPTGGSPSPLH | 0.844 | 0
[…] (CDR3 as printed); L12I derived by comparing it with the table's wild-type CDR3 ASSPTGGSPSPLH | 0.883 | 0
[…] (CDR3 as printed); L12K derived by comparing it with the table's wild-type CDR3 ASSPTGGSPSPLH | 0.756 | 0
[…] (CDR3 as printed); L12M derived by comparing it with the table's wild-type CDR3 ASSPTGGSPSPLH | 0.583 | 0
[…] (CDR3 as printed); L12N derived by comparing it with the table's wild-type CDR3 ASSPTGGSPSPLH | 0.99 | 0
[…] (CDR3 as printed); L12P derived by comparing it with the table's wild-type CDR3 ASSPTGGSPSPLH | 1.2 | 0
[…] (CDR3 as printed); L12Q derived by comparing it with the table's wild-type CDR3 ASSPTGGSPSPLH | 0.615 | 0
[…] (CDR3 as printed); L12R derived by comparing it with the table's wild-type CDR3 ASSPTGGSPSPLH | 0.619 | 0
[…] (CDR3 as printed); L12S derived by comparing it with the table's wild-type CDR3 ASSPTGGSPSPLH | 0.878 | 0
[…] (CDR3 as printed); L12V derived by comparing it with the table's wild-type CDR3 ASSPTGGSPSPLH | 0.702 | 0
[…] (CDR3 as printed); L12Y derived by comparing it with the table's wild-type CDR3 ASSPTGGSPSPLH | 1.11 | 0
[…] (CDR3 as printed); P4A derived by comparing it with the table's wild-type CDR3 ASSPTGGSPSPLH | 0.738 | 0
[…] (CDR3 as printed); P4C derived by comparing it with the table's wild-type CDR3 ASSPTGGSPSPLH | 0.776 | 0
[…] (CDR3 as printed); P4D derived by comparing it with the table's wild-type CDR3 ASSPTGGSPSPLH | 0.917 | 0
[…] (CDR3 as printed); P4E derived by comparing it with the table's wild-type CDR3 ASSPTGGSPSPLH | 0.97 | 0
[…] (CDR3 as printed); P4F derived by comparing it with the table's wild-type CDR3 ASSPTGGSPSPLH | 1.02 | 0

Variant | enrichment [1] | enrichment [2]
[…] (CDR3 as printed); P4G derived by comparing it with the table's wild-type CDR3 ASSPTGGSPSPLH | 0.753 | 0
[…] (CDR3 as printed); P4H derived by comparing it with the table's wild-type CDR3 ASSPTGGSPSPLH | 0.553 | 0
[…] (CDR3 as printed); P4I derived by comparing it with the table's wild-type CDR3 ASSPTGGSPSPLH | 0.965 | 0
[…] (CDR3 as printed); P4K derived by comparing it with the table's wild-type CDR3 ASSPTGGSPSPLH | 0.891 | 0
[…] (CDR3 as printed); P4L derived by comparing it with the table's wild-type CDR3 ASSPTGGSPSPLH | 0.459 | 0
[…] (CDR3 as printed); P4M derived by comparing it with the table's wild-type CDR3 ASSPTGGSPSPLH | 0.718 | 0
[…] (CDR3 as printed); P4N derived by comparing it with the table's wild-type CDR3 ASSPTGGSPSPLH | 1.17 | 0
[…] (CDR3 as printed); P4Q derived by comparing it with the table's wild-type CDR3 ASSPTGGSPSPLH | 1.2 | 0
[…] (CDR3 as printed); P4R derived by comparing it with the table's wild-type CDR3 ASSPTGGSPSPLH | 0.618 | 0
[…] (CDR3 as printed); P4S derived by comparing it with the table's wild-type CDR3 ASSPTGGSPSPLH | 0.973 | 0
[…] (CDR3 as printed); P4W derived by comparing it with the table's wild-type CDR3 ASSPTGGSPSPLH | 1.23 | 0
[…] (CDR3 as printed); P4Y derived by comparing it with the table's wild-type CDR3 ASSPTGGSPSPLH | 0.624 | 0
[…] (CDR3 as printed); P9A derived by comparing it with the table's wild-type CDR3 ASSPTGGSPSPLH | 0.394 | 114
[…] (CDR3 as printed); P9C derived by comparing it with the table's wild-type CDR3 ASSPTGGSPSPLH | 0.869 | 0
[…] (CDR3 as printed); P9D derived by comparing it with the table's wild-type CDR3 ASSPTGGSPSPLH | 0.994 | 0
[…] (CDR3 as printed); P9E derived by comparing it with the table's wild-type CDR3 ASSPTGGSPSPLH | 0.929 | 0
[…] (CDR3 as printed); P9F derived by comparing it with the table's wild-type CDR3 ASSPTGGSPSPLH | 0.851 | 0
[…] (CDR3 as printed); P9G derived by comparing it with the table's wild-type CDR3 ASSPTGGSPSPLH | 1.21 | 0
